Values of other authors, collected in paper PMC10404613.

Molecular target: UBC9 (Homo sapiens) (UniProt P63279)
Chain of UniProt P63279 (P63279 2-158): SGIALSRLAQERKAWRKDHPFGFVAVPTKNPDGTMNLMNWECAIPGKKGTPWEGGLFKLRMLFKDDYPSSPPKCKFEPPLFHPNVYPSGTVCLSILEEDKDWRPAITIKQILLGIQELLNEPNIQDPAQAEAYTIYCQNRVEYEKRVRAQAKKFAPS

- Kd: 100 nM
Substance: SUMO1 (from UniProt P63165)
